± gives the uncertainty stated by the source.
Assay: protein stability index of a GFP-peptide fusion (yeast GPS) (PSI 1-4); higher = more stable; sorted into four equal gates, so the index is relative within each strain
Settings: doa10∆
In short: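 For each peptide, the protein stability index sums the read frequency in every gate after multiplying it by the gate number. Read frequencies came from plasmids that were PCR-amplified from each gate and Illumina-sequenced, with reads assigned to strains by barcodes. The gates were four equal bins of GFP/Cherry fluorescence ratio applied to mid-log yeast in leucine-free medium carrying a pooled library of tiled 17-residue yeast protein peptides fused downstream of GFP on a Cherry-expressing plasmid.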

HKSPNLSLMLESPNYCN [SRB4] and HLGERAASVIGMLVALG [RPC82] are within error of each other in protein stability index: 2.28 ± 0.078 for the first, 2.05 ± 0.23 for the second.

First: HLLVQLQKNDVYAFKAK [REC8]
Second: HLMSWSKTGIIAYSDSQ [SIN4]
The protein stability index of the first is higher: 3.15 ± 0.075 for the first, 1.63 ± 0.11 for the second.

Going from HLRSNILKDLIYRGVLN [SMC1] to HNKLNITSDALEGITTT [SMC3], the protein stability index rises from 1.74 ± 0.059 to 3.19 ± 0.16.

First: HNLHPQIGQVPLAPAPI [SNF5]
Second: HPGFGCWLSSVDVNTQK [RPN11]
The protein stability index of the first is higher: 2.54 ± 0.062 for the first, 1.25 ± 0.23 for the second.

Going from HPQDFGNPGRIRVLFKE [SEC65] to HQFHDILEEKTDLHLPK [NSL1], the protein stability index falls from 2.91 ± 0.077 to 2.35 ± 0.07.

First: HRLLQRALFRQLKRWYW [RMP1]
Second: HRSKKDQDQYLEIAKDF [IRR1]
The protein stability index of the first is lower: 2.29 ± 0.18 for the first, 3.15 ± 0.14 for the second.

Compared with HSGELMRQQSKELQQLQ [SMC1], HSISEAENMLEELRGQQ [SMC4] is higher in protein stability index: 2.89 ± 0.15 for the first, 3.27 ± 0.094 for the second.

Compared with HSNLEKISNSKLLSLLR [SIR4], HTPMVNFESISARSSVH [SRB8] is lower in protein stability index: 2.4 ± 0.063 for the first, 2.08 ± 0.043 for the second.

HTQDIIGGMRVDENGDP [RET1] and HTSSNSREIAQPSSSRY [SMB1] are within error of each other in protein stability index: 3.2 ± 0.084 for the first, 3.17 ± 0.11 for the second.

HVKVNDKKEMTIYNNIR [SIR3] and HVPEKKSTDLTPKGNES [MTR3] are within error of each other in protein stability index: 3.04 ± 0.052 for the first, 2.97 ± 0.12 for the second.

Going from HWNLPGERIFNKIRNLE [SIR2] to IAAGTYGKVYKAKRQIN [SSN3], the protein stability index falls from 3.3 ± 0.098 to 1.68 ± 0.061.

First: IAFDDLIENKIQNKKIQ [RPN8]
Second: IAIAGTGQIEGLLDYMR [COR1]
The protein stability index of the first is lower: 2.54 ± 0.07 for the first, 3.37 ± 0.088 for the second.

Going from IAKLSVIPIRRGYWGTN [RPS2] to IALGEDIGKEMSLRHFG [RPN1], the protein stability index rises from 2.02 ± 0.073 to 3.2 ± 0.088.

Compared with IALNLDTTVNDCLDKLL [SNF2], IAMPKRRMAFKPFGSAK [YLR335W/NUP2] is higher in protein stability index: 2.54 ± 0.14 for the first, 2.86 ± 0.052 for the second.

First: IANMVLPPEKIYSPLHS [SIR2]
Second: IASTLGPSAMRLSRCIR [RPC82]
The protein stability index of the first is lower: 1.54 ± 0.035 for the first, 1.84 ± 0.089 for the second.

First: IAYSDSQSSNANICLTF [SIN4]
Second: IDEIAYLFHNDRIIHTW [ECM29]
The protein stability index of the first is higher: 2.74 ± 0.1 for the first, 1.4 ± 0.049 for the second.

Compared with IDEKSQFVETIVSKSIE [RPN2], IDETMMDKPLNFRILKS [SRB5] is higher in protein stability index: 1.68 ± 0.1 for the first, 2.95 ± 0.14 for the second.

Going from IDLEAPVQIVKRITQIT [RPS20] to IDMHLIYGVEWLIEGKL [YDL116W/NUP84], the protein stability index rises from 2.15 ± 0.12 to 2.64 ± 0.17.

Going from IDNYITNSVRLFEVNPS [SRP21] to IDQAHVSEITKLKFFPS [RPN14], the protein stability index rises from 2.61 ± 0.1 to 3.12 ± 0.077.

IDREGNARKVVGASVVV [RPS12] and IDRGLFRSLFFRSYMDQ [RPB2] are within error of each other in protein stability index: 2.65 ± 0.18 for the first, 3 ± 0.27 for the second.

Compared with IDSINGPDTKGQLEDFD [SMC3], IDSSNLPLQAQQQLYGG [SWI1] is lower in protein stability index: 3.47 ± 0.14 for the first, 2.91 ± 0.057 for the second.

Going from IDYSNSQIRLYAKFKRN [RGR1] to IEAASTTQDQCKLTLDI [RPB8], the protein stability index falls from 3.1 ± 0.093 to 2.92 ± 0.06.

Compared with IEAGRAALYKEVYNVIA [RPO21], IEAIDEYNKPNSEKFVF [ISW2] is higher in protein stability index: 2.36 ± 0.085 for the first, 2.6 ± 0.1 for the second.

Going from IEGMEQRIIKELSIRFP [ARP7] to IEKTESVDKKVDSGEER [SWI3], the protein stability index rises from 3.04 ± 0.096 to 3.26 ± 0.098.

First: IELIDYDKLPAGQNATV [RET1]
Second: IELLSYLVEAPWNDDYP [YML103C/NUP188]
The protein stability index of the first is higher: 2.41 ± 0.074 for the first, 1.68 ± 0.093 for the second.

First: IEPLEINIQSFKDVEHI [BRR2]
Second: IEQLFPVRPVRVRHEDV [RPC53]
The protein stability index of the first is lower: 2.5 ± 0.069 for the first, 2.9 ± 0.076 for the second.

Compared with IERLTKRQFNNSYWLII [ITC1], IESFVELGVSIYDFPGT [NUT2] is lower in protein stability index: 3.01 ± 0.077 for the first, 2.83 ± 0.081 for the second.

First: IFCVGSGQTFAYGVLDS [PRE2]
Second: IFGSGFGSADDTYPYLT [FAS1]
The protein stability index of the first is higher: 2.49 ± 0.095 for the first, 2.3 ± 0.075 for the second.

Compared with IFHPMIHYSWSFILYYR [YML103C/NUP188], IFNSNKAKIIPGNGKHA [SIR4] is higher in protein stability index: 1.74 ± 0.051 for the first, 2.34 ± 0.11 for the second.

First: IFSYGPHIQKMLSILEI [POP6]
Second: IFSYLQFTSSLFKALKV [RGR1]
The protein stability index of the first is higher: 2.27 ± 0.12 for the first, 1.61 ± 0.059 for the second.

Going from IFTDFLPSSNGSSRIIA [RRP42] to IGEFNVSMYQNSSTSST [YDL088C/ASM4], the protein stability index rises from 3.15 ± 0.085 to 3.61 ± 0.28.

Compared with IGFTIKEYENHSGELMR [SMC1], IGGMRVDENGDPIWQHQ [RET1] is higher in protein stability index: 2.53 ± 0.14 for the first, 3.13 ± 0.2 for the second.

Compared with IGHLIKTRFKGSQFIVV [SMC2], IGQIIFSVRTKDSNKDV [RPL10] is lower in protein stability index: 3.5 ± 0.12 for the first, 2.18 ± 0.05 for the second.

Compared with IHEIRLNTLNNVVEIWV [SIR3], IHIQETQEFSKNYTTET [SIR3] is higher in protein stability index: 1.38 ± 0.051 for the first, 3.39 ± 0.1 for the second.

Compared with IHLNELLTNDESAFENL [SNF12], IHSGVLSSIESDLKKRE [YMR153W/NUP53] is higher in protein stability index: 2.73 ± 0.057 for the first, 3.07 ± 0.084 for the second.

Compared with IIAVKGSGSRLNRLPAA [RPL23A], IIDHIPGHSLLLSIKLP [SNF5] is higher in protein stability index: 1.42 ± 0.051 for the first, 1.96 ± 0.066 for the second.

Going from IIEQLSIAAERYDYSDE [YCG1] to IIGTFSDSYKVSLQNFS [RRP40], the protein stability index falls from 2.51 ± 0.052 to 2.11 ± 0.099.

First: IIKGTDVYSPEKGSWEQ [BRR2]
Second: IIKMTIPYAAKLLFQEL [RET1]
The protein stability index of the first is higher: 3.1 ± 0.06 for the first, 2.18 ± 0.1 for the second.

IIKYPVAFDNINTHIET [SNF2] and IILKTRQINKLIDSLPG [SRB7] are within error of each other in protein stability index: 2.45 ± 0.14 for the first, 2.31 ± 0.071 for the second.

Going from IIPTTLEEQQQLEDESS [YML103C/NUP188] to IISSNENALIELKNELA [YIL149C/MLP2], the protein stability index rises from 1.88 ± 0.081 to 2.53 ± 0.15.

Going from IKDEIDDPFTKINTRGA [SWI1] to IKKKKKKSKNGTISKTG [SRP14], the protein stability index rises from 1.96 ± 0.22 to 3.16 ± 0.19.

IKLDRWLMEGSYQKAWD [RPN12] and IKNLTVQLSPSNPQHII [RGR1] are within error of each other in protein stability index: 2.72 ± 0.11 for the first, 2.6 ± 0.052 for the second.

First: IKSKADAWVSAAHYNRE [PRP8]
Second: IKSQYYSRISKLKQLLD [YIL149C/MLP2]
The protein stability index of the first is higher: 1.79 ± 0.078 for the first, 1.2 ± 0.095 for the second.

IKTFLVDLTSSNFADSA [YDL116W/NUP84] and IKTQQHILPEVPPVENF [TAF14] are within error of each other in protein stability index: 2.3 ± 0.089 for the first, 2.21 ± 0.1 for the second.

Going from ILGMLSLADNEIALKGL [YCS4] to ILHVRAQYCYKNGLYQE [SRP72], the protein stability index rises from 2.42 ± 0.053 to 2.86 ± 0.073.

First: ILKEEFPKIDSLAQNDC [RPN5]
Second: ILMQQQMMARMAQTATQ [SRP54]
The protein stability index of the first is higher: 3.19 ± 0.15 for the first, 2.34 ± 0.14 for the second.

Going from ILQILNLMILNTKVPVD [YML103C/NUP188] to ILSDSPLELSAPIGKHY [DIS3], the protein stability index rises from 1.34 ± 0.1 to 1.71 ± 0.13.

Going from ILSVKLAELINMTTIAD [SRB6] to ILTPESQLKKSKAQQKT [RPL7A], the protein stability index rises from 2.6 ± 0.072 to 3.02 ± 0.078.

First: IMRILKSNGLAPEIPED [RPS13]
Second: INAEEIVDFTLPPPPPP [PRP8]
The protein stability index of the first is lower: 2.14 ± 0.09 for the first, 2.94 ± 0.07 for the second.

First: INGWELTKAQKYLEQVL [RPL17A]
Second: INHTILGKLQDVFNLLP [RPN8]
The protein stability index of the first is higher: 3.34 ± 0.06 for the first, 3.16 ± 0.066 for the second.

INKQRVPLSDNAIIEAN [RPL7A] and INLRKVAEKMNGCSGAD [RPT6] are within error of each other in protein stability index: 2.6 ± 0.058 for the first, 2.45 ± 0.15 for the second.

Work on INMADRSLGLQQVVCIF [POP6] yielded a protein stability index of 1.39 ± 0.093.

Reference: the supplement of paper PMC9732359
